Sequences and labels used below:
B1: Drp1 (dynamin-related protein Drp1), wild type [not stated] / GST-MiD51^133-463, wild type [human] (parent complex)
chain 1: MEALIPVINKLQDVFNTVGADIIQLPQIVVVGTQSSGKSSVLESLVGRDLLPRGTGIVTRRPLILQLVHVSQEDKRKTTGEENGVEAEEWGKFLHTKNKLYTDFDEIRQEIENETERISGNNKGVSPEPIHLKIFSPNVVNLTLVDLPGMTKVPVGDQPKDIELQIRELILRFISNPNSIILAVTAANTDMATSEALKISREVDPDGRRTLAVITKLDLMDAGTDAMDVLMGRVIPVKLGIIGVVNRSQLDINNKKSVTDSIRDEYAFLQKKYPSLANRNGTKYLARTLNRLLMHHIRDCLPELKTRINVLAAQYQSLLNSYGEPVDDKSATLLQLITKFATEYCNTIEGTAKYIETSELCGGARICYIFHETFGRTLESVDPLGGLNTIDILTAIRNATGPRPALFVPEVSFELLVKRQIKRLEEPSLRCVELVHEEMQRIIQHCSNYSTQELLRFPKLHDAIVEVVTCLLRKRLPVTNEMVHNLVAIELAYINTKHPDFADACGLMNNNIEEQRRNRLARELPSAVSRDKVASGGGGVGDGVQEPTTGNWRGMLKTSKAEELLAEEKSKPIPIMPASPQKGHAVNLLDVPVPVARKLSAREQRDCEVIERLIKSYFLIVRKNIQDSVPKAVMHFLVNHVKDTLQSELVGQLYKSSLLDDLLTESEDMAQRRKEAADMLKALQGASQIIAEIRETHLW
chain 2: MSLQEKLLTYYRNRAAIPAGEQARAKQAAVDICAELRSFLRAKLPDMPLRDMYLSGSLYDDLQVVTADHIQLIVPLVLEQNLWSCIPGEDTIMNVPGFFLVRRENPEYFPRGSSYWDRCVVGGYLSPKTVADTFEKVVAGSINWPAIGSLLDYVIRPAPPPEALTLEVQYERDKHLFIDFLPSVTLGDTVLVAKPHRLAQYDNLWRLSLRPAETARLRALDQADSGCRSLCLKILKAICKSTPALGHLTASQLTNVILHLAQEEADWSPDMLADRFLQALRGLISYLEAGVLPSALNPKVNLFAELTPEEIDELGYTLYCSLSEPEVLLQT

From PMC6355003 (2019) come the findings set out here.

The variants in the first experiment derive from B1. The experiment in a line: GST pull-down, SDS-PAGE band quantification; parent: 0.15; read off a plot.
As to chain 1 A395D, the response is ~0.084 molar ratio.

For the variant chain 1 G350D, chain 1 A395D, the response is ~0.01 molar ratio.

As for chain 1 S579D, the response is ~0.19 molar ratio.

Regarding chain 1 A395D, chain 1 G401A, chain 1 P402A, chain 1 R403A, chain 1 P404A, the response is ~0.012 molar ratio.

On to chain 1 G350D, for which the response is ~0.089 molar ratio.

For the variant chain 1 S600D, the response is ~0.16 molar ratio.

With chain 1 G350D, chain 1 G401A, chain 1 P402A, chain 1 R403A, chain 1 P404A, the response was ~0.017 molar ratio.

For the variant chain 1 G401A, chain 1 P402A, chain 1 R403A, chain 1 P404A, the response is ~0.064 molar ratio.

The variants in another experiment derive from B1. The experiment in a line: GST pull-down, SDS-PAGE band quantification; parent: 0.3; read off a plot.
chain 2 E107R: the response was ~0.42 molar ratio.

In the case of chain 2 F109A, the response was ~0.055 molar ratio.

As for chain 2 R111E, the response was ~0.082 molar ratio.

For the variant chain 2 S285Q, the response is ~0.33 molar ratio.

Consider chain 2 R102E, for which the response is ~0.082 molar ratio.

For chain 2 Y108A, the response is ~0.058 molar ratio.
